Target: T1, human CRBN protein (cereblon), full-length 51 kDa (human, UniProt Q96SW2 1-442)
T1 construct: also called human CRBN isoform 1 (NP-057386)
Experiment: denaturing immunoblot
Protocol: CGN-6-4-5 was diluted 1:10,000 dilution in 0.1% Tween PBS buffer. […] Peptide neutralization was performed by combining antibody with a five-fold (by weight) excess of blocking peptide in 500 μl PBS and incubating with constant rotation at room temperature for 2 hours.

T1 sequence (Q96SW2 whole entry, canonical isoform): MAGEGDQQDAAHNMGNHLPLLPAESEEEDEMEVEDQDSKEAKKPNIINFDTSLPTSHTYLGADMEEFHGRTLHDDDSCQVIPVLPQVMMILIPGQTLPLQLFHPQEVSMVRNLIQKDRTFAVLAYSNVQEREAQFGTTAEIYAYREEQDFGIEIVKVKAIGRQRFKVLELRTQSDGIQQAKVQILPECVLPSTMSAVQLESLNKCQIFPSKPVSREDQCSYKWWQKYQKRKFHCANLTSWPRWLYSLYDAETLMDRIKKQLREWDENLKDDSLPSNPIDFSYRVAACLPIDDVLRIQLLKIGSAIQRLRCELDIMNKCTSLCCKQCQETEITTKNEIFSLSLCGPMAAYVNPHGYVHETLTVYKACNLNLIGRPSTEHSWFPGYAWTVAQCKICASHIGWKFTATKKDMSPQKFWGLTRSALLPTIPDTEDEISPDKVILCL

B1: Rabbit monoclonal antibody CGN-6-4-5 (antibody, V domains shown)
VH: QSVEESGGRLVTPGTPLTLTCTVSGFSLSRYGVSWVRQAPGKGLEHIGYIYSDPGMTFYATWAKGRFTISKTSSTTVDLKMTSPTIEDTATYFCARGTPLASYSTWGPGTLVTISL
VL: AQVLTQTPASVSAAVGGTVTINCQSSENIYKNNYLSWFQQKPGQPPKLLIYQASTLASGVPSRFKGSGSGTRFSLTISDLECDDAATYYCAGGYSGNIFTFGGGTEVVVKG
notes: Rabbit IgG from a CGN-6 hybridoma clone of rabbits primed with residues 65-76 of human CRBN; also called monoclonal anti-CRBN antibody
binding result: binds

From patent US20120322073A1 (CELGENE, published 2012)
